Molecular target: T1, human CD123 (human, UniProt P26951 19-378)
T1 construct: whole, on cells; Target presented on CD123+ AML cell lines; also called CD123 on CD123+ AML cells
Assay: flow cytometry on tumor cell lines, detection with mouse anti-human IgG4
Procedure: All tumor cells were centrifuged, washed twice with Dulbecco's phosphate-buffered saline (DPBS) and 1×10^4 cells were added to the center of each well of a 96 well U bottom plate along with fragment crystallizable (Fc) block (human IgG1 fragment) which was added at 2 mg/mL for 10 minutes. Serially diluted bispecific antibodies were added to the appropriate wells. Plates were incubated in the dark at 37° C. with 5% CO₂ for 4 hours. The cells were then washed with DPBS and binding of the bispecific antibody was detected by staining with mouse anti-human IgG4 (Southern Biotech, clone HP6025, catalog #9200-09) and LIVE/DEAD (L/D; Invitrogen, catalog #L34976) for 30 minutes. Finally, cells were washed, resuspended in stain buffer, and analyzed on the FACSCanto II flow cytometer (BD Biosciences). Geometric mean fluorescence intensity (gMFI) was plotted in Prism version 7 (GraphPad). The X axis was log transformed and a 4 parameter non-linear curve fit was applied.

T1 sequence (P26951 19-378): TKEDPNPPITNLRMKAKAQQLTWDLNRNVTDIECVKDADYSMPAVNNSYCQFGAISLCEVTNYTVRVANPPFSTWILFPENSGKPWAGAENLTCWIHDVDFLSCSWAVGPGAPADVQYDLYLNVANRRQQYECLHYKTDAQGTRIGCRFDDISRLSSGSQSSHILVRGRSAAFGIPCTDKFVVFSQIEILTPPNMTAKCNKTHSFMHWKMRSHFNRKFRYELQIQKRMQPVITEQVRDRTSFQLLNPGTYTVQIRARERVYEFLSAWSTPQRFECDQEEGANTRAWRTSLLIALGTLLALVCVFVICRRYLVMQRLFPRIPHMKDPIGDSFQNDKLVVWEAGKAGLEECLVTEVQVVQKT

B1: CD123×CD3 bispecific antibody (bispecific antibody, human IgG4 S228P, kappa, lambda, F234A L235A)
heavy 1: not shown
light 1: EIVLTQSPGTLSLSPGERATLSCRASQSVSSSYLAWYQQKPGQAPRLLIYGASSRATGIPDRFSGSGSGTDFTLTISRLEPEDFAVYYCQQDYGFPWTFGQGTKVEIKRTVAAPSVFIFPPSDEQLKSGTASVVCLLNNFYPREAKVQWKVDNALQSGNSQESVTEQDSKDSTYSLSSTLTLSKADYEKHKVYACEVTHQGLSSPVTKSFNRGEC
heavy 2: EVQLVESGGGLVQPGGSLKLSCAASGFTFNTYAMNWVRQASGKGLEWVGRIRSKYNAYATYYAASVKGRFTISRDDSKNTAYLQMNSLKTEDTAVYYCTRHGNFGNSYVSWFAYWGQGTLVTVSSASTKGPSVFPLAPCSRSTSESTAALGCLVKDYFPEPVTVSWNSGALTSGVHTFPAVLQSSGLYSLSSVVTVPSSSLGTKTYTCNVDHKPSNTKVDKRVESKYGPPCPPCPAPEAAGGPSVFLFPPKPKDTLMISRTPEVTCVVVDVSQEDPEVQFNWYVDGVEVHNAKTKPREEQFNSTYRVVSVLTVLHQDWLNGKEYKCKVSNKGLPSSIEKTISKAKGQPREPQVYTLPPSQEEMTKNQVSLTCLVKGFYPSDIAVEWESNGQPENNYKTTPPVLDSDGSFLLYSKLTVDKSRWQEGNVFSCSVMHEALHNHYTQKSLSLSLGK
light 2: QAVVTQEPSLTVSPGGTVTLTCRSSTGAVTTSNYANWVQQKPGQAPRGLIGGTNKRAPGTPARFSGSLLGGKAALTLSGAQPEDEAEYYCALWYSNLWVFGGGTKLTVLGQPKAAPSVTLFPPSSEELQANKATLVCLISDFYPGAVTVAWKADSSPVKAGVETTTPSKQSNNKYAASSYLSLTPEQWKSHRSYSCQVTHEGSTVEKTVAPTECS
notes: also called CD123xCD3 DuoBody antibody
B1: binds.
